In US20250145701A1:

Assays:
[1] = target: monkey PD-1 (ACRO, His tag) (monkey) (UniProt B0LAJ3); assay: ELISA, monkey PD-1-His coated at 1 ug/mL, anti-human IgG Fc detection
[2] = target: monkey PD-1 (ACRO, His tag) (monkey) (UniProt B0LAJ3); assay: ELISA, monkey PD-1-His coated at 1 ug/mL, anti-human IgG Fc detection, OD450
[3] = target: human VEGF (ACRO, His tag) (human) (UniProt P15692); assay: ELISA, human VEGF-His coated at 50 ng/ml, anti-human IgG Fc detection, OD450; negative control
[4] = target: biotin-labeled human VEGF (ACRO, biotinylated protein) (human) (UniProt P15692); assay: bridging ELISA: human PD-1-His coated at 1 ug/mL, antibody, then biotinylated human VEGF at 50 ng/ml and streptavidin-HRP, OD450; single-target control
biotin-labeled human VEGF (ACRO, biotinylated protein) (human), sequence (P15692 other isoform, or with tags, fused parts or gaps limits assumed): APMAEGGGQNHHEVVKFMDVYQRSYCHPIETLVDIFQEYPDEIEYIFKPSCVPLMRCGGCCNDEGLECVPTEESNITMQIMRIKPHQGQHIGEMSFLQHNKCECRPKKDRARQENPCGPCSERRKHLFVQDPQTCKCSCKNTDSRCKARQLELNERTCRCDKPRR

monkey PD-1 (ACRO, His tag) (monkey), sequence (B0LAJ3 entry or part of it limits assumed, form in doubt): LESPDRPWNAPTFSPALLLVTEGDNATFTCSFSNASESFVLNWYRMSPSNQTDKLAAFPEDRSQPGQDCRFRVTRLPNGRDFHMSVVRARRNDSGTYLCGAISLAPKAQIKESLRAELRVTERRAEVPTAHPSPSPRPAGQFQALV
human VEGF (ACRO, His tag) (human), sequence (P15692 other isoform, or with tags, fused parts or gaps limits assumed): as the sequence (P15692 other isoform, or with tags, fused parts or gaps limits assumed) above

Substance: Keytruda (pembrolizumab) (antibody)
- EC50 [1]: 187 pM
- TOP OD [2]: 3.08 OD

Substance: Opdivo (nivolumab) (antibody)
- EC50 [1]: 153 pM
- TOP OD [2]: 2.99 OD
- TOP OD [3]: 0.048 OD
- TOP OD [4]: 0.048 OD
